Laboratory results published in paper PMC3774798 (PLoS ONE, 2013).

What was measured:
PA4781HD-GYP = target: T1, PA4781HD-GYP (Pseudomonas aeruginosa, UniProt Q9HV27); assay: RP-HPLC of nucleotides, turnover; type: biochemical; conditions: REC domain removed, not phosphorylated; pH 8, 30 °C, Mg2+ and/or Mn2+
T1 construct: gene PA4781; HD-GYP domain, first 111 residues (REC domain) removed, His-tag (pET28b), E. coli BL21(DE3); mainly monomer

[1] = tested on: Nc1nc2c(ncn2[C@@H]2O[C@@H]3CO[P@](=O)(O)O[C@H]4[C@@H](O)[C@H](n5cnc6c(=O)[nH]c(N)nc65)O[C@@H]4CO[P@](=O)(O)O[C@H]3[C@H]2O)c(=O)[nH]1; assay: purified protein
[2] = tested on: Nc1nc2c(ncn2[C@@H]2O[C@H](COP(=O)(O)O[C@H]3[C@@H](O)[C@H](n4cnc5c(=O)[nH]c(N)nc54)O[C@@H]3COP(=O)(O)O)[C@@H](O)[C@H]2O)c(=O)[nH]1; assay: purified protein; conditions: Mg2+ and/or Mn2+
[3] = protein phosphorylated with acetyl phosphate (extent unknown), pH 8, 30 °C
[4] = 10 mM MgCl2 and 2.5 mM MnCl2, 50 mM Tris-HCl pH 8, 150 mM NaCl, 30 °C, 0.64 µM enzyme
[5] = 50 mM Tris-HCl pH 8, 150 mM NaCl, 30 °C, may be apparent value (about 30% c-di-GMP still bound to protein)

T1 sequence (Q9HV27 112-393): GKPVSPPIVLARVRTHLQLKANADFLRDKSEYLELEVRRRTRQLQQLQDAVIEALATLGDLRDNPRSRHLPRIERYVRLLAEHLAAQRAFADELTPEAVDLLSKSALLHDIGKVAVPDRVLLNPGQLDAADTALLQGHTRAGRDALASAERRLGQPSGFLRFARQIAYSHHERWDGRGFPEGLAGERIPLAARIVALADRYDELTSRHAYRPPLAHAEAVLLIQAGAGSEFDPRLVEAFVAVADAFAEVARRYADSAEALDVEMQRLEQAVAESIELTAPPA

## Nc1nc2c(ncn2[C@@H]2O[C@@H]3COP(=O)(O)O[C@H]4[C@@H](O)[C@H](n5cnc6c(=O)[nH]c(N)nc65)O[C@@H]4COP(=O)(O)O[C@H]3[C@H]2O)c(=O)[nH]1 [c-di-GMP]
PA4781HD-GYP
  RP-HPLC of nucleotides, turnover: displays little, but significant PDE activity

## PA4781 (Pseudomonas aeruginosa PAO1)
[1]; protein phosphorylated with acetyl phosphate (extent unknown), 10 mM MgCl2, pH 8, 30 °C
  Km: 119 ± 30 µM
[2]; [3]
  Km: 27 ± 8 µM
  kcat: 7.7±1x10^-4 s^-1

## PA4108 (Pseudomonas aeruginosa PAO1)
[1]; [4]
  Km: 20 ± 5 µM
  kcat: 0.00015 ± 1e-05 s⁻¹
[2]; [5]
  Km: 30 ± 9 µM
  kcat: 1.2±0.1x10^-3 s^-1
